± gives the standard deviation of the averaged measurements.
Tests used:
hTERT-HMEC = test: percentage of EdU-negative (G0-arrested) nuclei per well, 72 h; higher = more G0 arrest; conditions: reference: sequence is the full UniProt precursor, the tested protein was the secreted form or ectodomain
MCF7 = test: as above; conditions: reference: sequence is the full UniProt precursor, the tested protein was the secreted form or ectodomain
[1] = protein concentration 0.0225 µM
[2] = protein concentration 0.00775 µM
[3] = protein concentration 0.0775 µM
[4] = protein concentration 0.0293325 µM
[5] = protein concentration 0.293325 µM
[6] = protein concentration 0.01975 µM
[7] = protein concentration 0.1975 µM
[8] = protein concentration 0.00925 µM
[9] = protein concentration 0.0925 µM
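Also: secreted proteins added to cultured cells, EdU pulse at the end, nuclei found by Hoechst imaging, EdU status from nuclear versus surrounding ring intensity ratio, PBS as neutral control.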

MRGTPGDADGGGRAVYQSMCKPITGTINDLNQQVWTLQGQNLVAVPRSDSVTPVTVAVITCKYPEALEQGRGDPIYLGIQNPEMCLYCEKVGEQPTLQLKEQKIMDLYGQPEPVKPFLFYRAKTGRTSTLESVAFPDWFIASSKRDQPIILTSELGKSYNTAFELNIND [Q9NZH8]
percentage of EdU-negative (hTERT-HMEC; [1]): 4.85 ± 0.94%
percentage of EdU-negative (hTERT-HMEC; protein concentration 0.225 µM): 5.31 ± 0.92%
percentage of EdU-negative (MCF7; [1]): 22.9 ± 0.82%
percentage of EdU-negative (MCF7; protein concentration 0.225 µM): 23 ± 2.5%

MPLRDETLREVWASDSGHEEESLSPEAPRRPKQRPAPAQRLRKKRTEAPESPCPTGSKPRKPGAGRTGRPREEPSPDPAQARAPQTVYARFLRDPEAKKRDPRETFLVARAPDAEDEEEEEEEDEEDEEEEAEEKKEKILLPPKKPLREKSSADLKERRAKAQGPRGDLGSPDPPPKPLRVRNKEAPAGEGTKMRKTKKKGSGEADKDPSGSPASARKSPAAMFLVGEGSPDKKALKKKGTPKGARKEEEEEEEAATVIKKSNQKGKAKGKGKKKAKEERAPSPPVEVDEPREFVLRPAPQGRTVRCRLTRDKKGMDRGMYPSYFLHLDTEKKVFLLAGRKRKRSKTANYLISIDPTNLSRGGENFIGKLRSNLLGNRFTVFDNGQNPQRGYSTNVASLRQELAAVIYETNVLGFRGPRRMTVIIPGMSAENERVPIRPRNASDGLLVRWQNKTLESLIELHNKPPVWNDDSGSYTLNFQGRVTQASVKNFQIVHADDPDYIVLQFGRVAEDAFTLDYRYPLCALQAFAIALSSFDGKLACE
percentage of EdU-negative (hTERT-HMEC; [2]): 5.21 ± 0.36%
percentage of EdU-negative (hTERT-HMEC; [3]): 6.67 ± 0.59%
percentage of EdU-negative (MCF7; [2]): 25.1 ± 0.28%
percentage of EdU-negative (MCF7; [3]): 25.5 ± 0.95%

Q9NQS3
percentage of EdU-negative (hTERT-HMEC; [1]): 4.83 ± 1.2%
percentage of EdU-negative (hTERT-HMEC; protein concentration 0.225 µM): 4.728 ± 0.0098%
percentage of EdU-negative (MCF7; [1]): 25.9 ± 3.8%
percentage of EdU-negative (MCF7; protein concentration 0.225 µM): 26.1 ± 2.9%

MPVMRLFPCFLQLLAGLALPAVPPQQWALSAGNGSSEVEVVPFQEVWGRSYCRALERLVDVVSEYPSEVEHMFSPSCVSLLRCTGCCGDENLHCVPVETANVTMQLLKIRSGDRPSYVELTFSQHVRCECRHSPGRQSPDMPGDFRADAPSFLPPRRSLPMLFRMEWGCALTGSQSAVWPSSPVPEEIPRMHPGRNGKKQQRKPLREKMKPERCGDAVPRR
percentage of EdU-negative (hTERT-HMEC; [4]): 4.772 ± 0.0079%
percentage of EdU-negative (hTERT-HMEC; [5]): 5.02 ± 0.86%
percentage of EdU-negative (MCF7; [4]): 24.4 ± 0.58%
percentage of EdU-negative (MCF7; [5]): 25.4 ± 0.6%

MTSSRLWFSLLLAAAFAGRATALWPWPQNFQTSDQRYVLYPNNFQFQYDVSSAAQPGCSVLDEAFQRYRDLLFGSGSWPRPYLTGKRHTLEKNVLVVSVVTPGCNQLPTLESVENYTLTINDDQCLLLSETVWGALRGLETFSQLVWKSAEGTFFINKTEIEDFPRFPHRGLLLDTSRHYLPLSSILDTLDVMAYNKLNVFHWHLVDDPSFPYESFTFPELMRKGSYNPVTHIYTAQDVKEVIEYARLRGIRVLAEFDTPGHTLSWGPGIPGLLTPCYSGSEPSGTFGPVNPSLNNTYEFMSTFFLEVSSVFPDFYLHLGGDEVDFTCWKSNPEIQDFMRKKGFGEDFKQLESFYIQTLLDIVSSYGKGYVVWQEVFDNKVKIQPDTIIQVWREDIPVNYMKELELVTKAGFRALLSAPWYLNRISYGPDWKDFYIVEPLAFEGTPEQKALVIGGEACMWGEYVDNTNLVPRLWPRAGAVAERLWSNKLTSDLTFAYERLSHFRCELLRRGVQAQPLNVGFCEQEFEQT
percentage of EdU-negative (hTERT-HMEC; [6]): 5.032 ± 0.0092%
percentage of EdU-negative (hTERT-HMEC; [7]): 20.1 ± 1.8%
percentage of EdU-negative (MCF7; [6]): 25.5 ± 0.27%
percentage of EdU-negative (MCF7; [7]): 26.4 ± 5.3%

MLQGPGSLLLLFLASHCCLGSARGLFLFGQPDFSYKRSNCKPIPANLQLCHGIEYQNMRLPNLLGHETMKEVLEQAGAWIPLVMKQCHPDTKKFLCSLFAPVCLDDLDETIQPCHSLCVQVKDRCAPVMSAFGFPWPDMLECDRFPQDNDLCIPLASSDHLLPATEEAPKVCEACKNKNDDDNDIMETLCKNDFALKIKVKEITYINRDTKIILETKSKTIYKLNGVSERDLKKSVLWLKDSLQCTCEEMNDINAPYLVMGQKQGGELVITSVKRWQKGQREFKRISRSIRKLQC [Q96HF1]
percentage of EdU-negative (hTERT-HMEC; [8]): 5.51 ± 0.23%
percentage of EdU-negative (hTERT-HMEC; [9]): 5.34 ± 0.013%
percentage of EdU-negative (MCF7; [8]): 21.9 ± 2.5%
percentage of EdU-negative (MCF7; [9]): 26.3 ± 1.9%

MLRGISQLPAVATMSWVLLPVLWLIVQTQAIAIKQTPELTLHEIVCPKKLHILHKREIKNNQTEKHGKEERYEPEVQYQMILNGEEIILSLQKTKHLLGPDYTETLYSPRGEEITTKPENMEHCYYKGNILNEKNSVASISTCDGLRGYFTHHHQRYQIKPLKSTDEKEHAVFTSNQEEQDPANHTCGVKSTDGKQGPIRISRSLKSPEKEDFLRAQKYIDLYLVLDNAFYKNYNENLTLIRSFVFDVMNLLNVIYNTIDVQVALVGMEIWSDGDKIKVVPSASTTFDNFLRWHSSNLGKKIHDHAQLLSGISFNNRRVGLAASNSLCSPSSVAVIEAKKKNNVALVGVMSHELGHVLGMPDVPFNTKCPSGSCVMNQYLSSKFPKDFSTSCRAHFERYLLSQKPKCLLQAPIPTNIMTTPVCGNHLLEVGEDCDCGSPKECTNLCCEALTCKLKPGTDCGGDAPNHTTE
percentage of EdU-negative (hTERT-HMEC; [1]): 4.82 ± 0.43%
percentage of EdU-negative (hTERT-HMEC; protein concentration 0.225 µM): 12.07 ± 0.12%
percentage of EdU-negative (MCF7; [1]): 25.9 ± 0.54%
percentage of EdU-negative (MCF7; protein concentration 0.225 µM): 27.7 ± 1.7%

MASTSYDYCRVPMEDGDKRCKLLLGIGILVLLIIVILGVPLIIFTIKANSEACRDGLRAVMECRNVTHLLQQELTEAQKGFQDVEAQAATCNHTVMALMASLDAEKAQGQKKVEELEGEITTLNHKLQDASAEVERLRRENQVLSVRIADKKYYPSSQDSSSAAAPQLLIVLLGLSALLQ
percentage of EdU-negative (hTERT-HMEC; [1]): 4.74 ± 0.69%
percentage of EdU-negative (hTERT-HMEC; protein concentration 0.225 µM): 4.84 ± 0.58%
percentage of EdU-negative (MCF7; [1]): 26.3 ± 3.5%
percentage of EdU-negative (MCF7; protein concentration 0.225 µM): 26.7 ± 3.2%

— the supplement of paper PMC11316812
